According to patent publication US20040235127:

Biological target: Schizochytrium PUFA PKS Orf A protein (carrying nine ACP domains)
Sequence (chain, as listed by the source): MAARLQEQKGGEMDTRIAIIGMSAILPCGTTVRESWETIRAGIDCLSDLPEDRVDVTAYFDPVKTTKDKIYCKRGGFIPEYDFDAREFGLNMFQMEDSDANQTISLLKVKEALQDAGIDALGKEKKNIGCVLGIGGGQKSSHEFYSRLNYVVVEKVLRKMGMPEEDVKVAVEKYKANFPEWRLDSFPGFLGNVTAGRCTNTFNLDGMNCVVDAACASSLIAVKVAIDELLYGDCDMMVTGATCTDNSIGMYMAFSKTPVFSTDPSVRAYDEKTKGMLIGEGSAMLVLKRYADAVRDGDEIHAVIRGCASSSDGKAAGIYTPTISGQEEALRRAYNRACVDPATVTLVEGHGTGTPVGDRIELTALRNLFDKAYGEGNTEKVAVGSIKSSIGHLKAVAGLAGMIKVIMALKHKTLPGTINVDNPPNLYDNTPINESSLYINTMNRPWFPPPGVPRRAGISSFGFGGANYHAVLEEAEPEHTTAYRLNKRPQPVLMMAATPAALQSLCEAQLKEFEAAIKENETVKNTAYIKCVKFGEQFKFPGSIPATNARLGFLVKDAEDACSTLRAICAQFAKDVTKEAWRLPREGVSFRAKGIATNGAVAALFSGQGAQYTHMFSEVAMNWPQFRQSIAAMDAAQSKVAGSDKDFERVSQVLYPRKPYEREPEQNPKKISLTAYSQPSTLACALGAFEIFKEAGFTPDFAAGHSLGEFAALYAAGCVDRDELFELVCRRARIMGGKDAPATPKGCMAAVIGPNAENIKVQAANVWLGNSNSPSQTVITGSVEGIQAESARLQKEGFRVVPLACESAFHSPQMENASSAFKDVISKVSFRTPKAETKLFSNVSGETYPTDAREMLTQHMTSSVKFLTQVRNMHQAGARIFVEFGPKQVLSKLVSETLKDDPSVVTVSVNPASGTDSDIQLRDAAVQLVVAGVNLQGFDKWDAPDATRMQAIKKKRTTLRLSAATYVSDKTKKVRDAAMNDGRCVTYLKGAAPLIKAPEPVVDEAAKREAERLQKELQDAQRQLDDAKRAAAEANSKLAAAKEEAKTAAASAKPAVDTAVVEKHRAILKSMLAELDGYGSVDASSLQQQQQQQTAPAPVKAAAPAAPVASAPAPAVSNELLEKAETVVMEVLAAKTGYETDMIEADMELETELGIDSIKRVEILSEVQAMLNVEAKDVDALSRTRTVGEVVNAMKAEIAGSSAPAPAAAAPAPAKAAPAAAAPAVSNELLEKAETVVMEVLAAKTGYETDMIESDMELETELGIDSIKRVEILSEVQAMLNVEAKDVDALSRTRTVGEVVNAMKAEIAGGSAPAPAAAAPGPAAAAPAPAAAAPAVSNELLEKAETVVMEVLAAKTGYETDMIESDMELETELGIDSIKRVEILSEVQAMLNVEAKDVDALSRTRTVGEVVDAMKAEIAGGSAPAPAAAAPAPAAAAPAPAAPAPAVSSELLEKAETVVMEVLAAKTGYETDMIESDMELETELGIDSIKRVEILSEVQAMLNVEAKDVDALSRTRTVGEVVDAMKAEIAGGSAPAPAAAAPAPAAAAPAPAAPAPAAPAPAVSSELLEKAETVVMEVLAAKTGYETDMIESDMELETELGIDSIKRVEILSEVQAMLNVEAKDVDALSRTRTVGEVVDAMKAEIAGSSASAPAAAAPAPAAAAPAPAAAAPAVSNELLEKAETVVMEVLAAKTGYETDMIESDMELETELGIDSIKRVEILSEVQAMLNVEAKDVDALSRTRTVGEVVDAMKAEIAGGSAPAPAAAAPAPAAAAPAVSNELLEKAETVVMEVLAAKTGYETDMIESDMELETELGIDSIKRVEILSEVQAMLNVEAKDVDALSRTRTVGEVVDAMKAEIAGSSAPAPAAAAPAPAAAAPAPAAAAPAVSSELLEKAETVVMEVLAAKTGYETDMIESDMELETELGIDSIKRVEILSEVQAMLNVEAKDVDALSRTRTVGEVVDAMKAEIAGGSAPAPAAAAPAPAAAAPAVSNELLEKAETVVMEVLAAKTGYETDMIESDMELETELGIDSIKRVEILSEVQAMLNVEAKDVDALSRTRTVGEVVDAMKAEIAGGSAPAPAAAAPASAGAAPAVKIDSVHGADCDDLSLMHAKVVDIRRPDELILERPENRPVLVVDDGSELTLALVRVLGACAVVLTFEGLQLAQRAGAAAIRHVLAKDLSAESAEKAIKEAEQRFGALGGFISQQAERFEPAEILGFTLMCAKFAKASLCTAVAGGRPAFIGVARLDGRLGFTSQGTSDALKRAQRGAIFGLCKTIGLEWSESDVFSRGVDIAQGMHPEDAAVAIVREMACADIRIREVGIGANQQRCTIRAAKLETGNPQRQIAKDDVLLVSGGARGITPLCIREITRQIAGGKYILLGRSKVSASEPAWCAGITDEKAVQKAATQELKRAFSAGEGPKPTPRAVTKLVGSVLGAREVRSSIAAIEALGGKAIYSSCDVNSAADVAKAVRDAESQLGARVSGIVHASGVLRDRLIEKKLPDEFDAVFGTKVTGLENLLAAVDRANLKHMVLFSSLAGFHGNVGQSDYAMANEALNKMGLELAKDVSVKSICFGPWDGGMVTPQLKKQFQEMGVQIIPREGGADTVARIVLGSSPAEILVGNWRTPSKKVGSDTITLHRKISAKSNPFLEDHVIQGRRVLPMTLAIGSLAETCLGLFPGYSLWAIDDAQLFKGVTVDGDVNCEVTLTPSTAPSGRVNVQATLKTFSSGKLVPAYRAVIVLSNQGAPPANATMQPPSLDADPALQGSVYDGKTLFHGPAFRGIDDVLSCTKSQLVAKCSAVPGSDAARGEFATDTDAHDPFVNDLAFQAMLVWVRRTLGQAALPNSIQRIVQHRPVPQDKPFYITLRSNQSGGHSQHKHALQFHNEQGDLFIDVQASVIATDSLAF

B1: sfp PPTase (phosphopantetheine transferase derived from Bacillus subtilis) (protein)
chain: MKIYGIYMDRPLSQEENERFMSFISPEKREKCRRFYHKEDAHRTLLGDVLVRSVISRQYQLDKSDIRFSTQEYGKPCIPDLPDAHFNISHSGRWVICAFDSQPIGIDIEKTKPISLEIAKRFFSKTEYSDLLAKDKDEQTDYFYHLWSMKESFIKQEGKGLSLPLDSFSVRLHQDGQVSIELPDSHSPCYIKTYEVDPGYKMAVCAAHPDFPEDITMVSYEELL
DHA production in E. coli co-expressing the PPTase with Orf A, B*, C (FAME analysis by gas-liquid chromatography): Co-expression of the sfp construct in cells expressing the Orf A, B*, C proteins, under certain conditions, resulted in DHA production.
